Source: US20250282870A1
“And” between values parts separate entries of the source, which are not always exact repeats. Equal entries are not always repeated.

Columns and labels:
[1] = target: FcγRII (CD32) expressed on Raji cells; assay: cell-based or functional assay
[2] = target: human CTLA4 expressed on Jurkat T cells (CTLA4 effector cells) (human) (UniProt P16410); assay: cell-based or functional assay
Chain of human CTLA4 expressed on Jurkat T cells (CTLA4 effector cells) (human) (P16410 36-223): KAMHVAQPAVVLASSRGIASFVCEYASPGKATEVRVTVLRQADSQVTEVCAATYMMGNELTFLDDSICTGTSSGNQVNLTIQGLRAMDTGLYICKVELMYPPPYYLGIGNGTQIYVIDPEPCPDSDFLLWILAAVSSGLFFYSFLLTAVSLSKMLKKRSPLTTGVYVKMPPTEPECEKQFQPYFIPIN

Chain of L3D10 (BioLegend anti-CTLA4 antibody) (heavy): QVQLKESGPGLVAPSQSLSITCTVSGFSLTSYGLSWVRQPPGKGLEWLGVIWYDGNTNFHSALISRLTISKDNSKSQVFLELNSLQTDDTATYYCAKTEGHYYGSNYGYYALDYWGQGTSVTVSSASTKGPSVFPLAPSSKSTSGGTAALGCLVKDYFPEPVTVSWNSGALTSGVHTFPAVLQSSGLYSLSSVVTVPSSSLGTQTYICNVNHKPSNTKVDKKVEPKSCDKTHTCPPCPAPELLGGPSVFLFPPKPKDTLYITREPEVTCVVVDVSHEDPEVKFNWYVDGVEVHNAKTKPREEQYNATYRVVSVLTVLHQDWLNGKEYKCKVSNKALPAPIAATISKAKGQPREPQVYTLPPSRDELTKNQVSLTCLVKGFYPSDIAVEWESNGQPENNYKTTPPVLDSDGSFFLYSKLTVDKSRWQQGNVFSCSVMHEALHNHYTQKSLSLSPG
Chain of L3D10 (BioLegend anti-CTLA4 antibody) (light): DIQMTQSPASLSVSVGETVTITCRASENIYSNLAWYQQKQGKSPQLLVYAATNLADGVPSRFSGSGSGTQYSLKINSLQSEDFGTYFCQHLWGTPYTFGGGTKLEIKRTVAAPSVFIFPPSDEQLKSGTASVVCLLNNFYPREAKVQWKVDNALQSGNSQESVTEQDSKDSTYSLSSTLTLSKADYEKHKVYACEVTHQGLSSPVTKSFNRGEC

| Substance | RLU ratio of the CTLA4 blockade assay with anti-CD32 antibody at 10 µg per ml [1] [%] | RLU ratio, Promega CTLA4 Blockade Bioassay (luciferase readout) [2] | half max activity concentration, CTLA4 Blockade Bioassay (luciferase or IL-2 readout) [2] [nM] | activity in the CTLA4 blockade assay with anti-CD32 antibody [1] [%] |
| --- | --- | --- | --- | --- |
| L3D10 (BioLegend anti-CTLA4 antibody) | 50 | 10 and 15 | 50 | – |
| ipilimumab (Selleckchem, Cat. No. A2001) (antibody) | 50 | – | – | 50 |
